{"source": "paper PMC9246859", "about": "(Nature chemical biology, 2022)", "binders": {"B1": {"name": "Fab36 R134A (CDRH3 mutant) (Fab, V domains shown)", "VH": "EVQLVESGGGLVQPGGSLRLSCAASGFTFSSSSIHWVRQAPGKGLEWVASISSSSGSTSYADSVKGRFTISADTSKNTAYLQMNSLRAEDTAVYYCARYSRYYYYAWAVGGYWGGLDYWGQGTLVTVFN", "VL": "DIQMTQSPSSLSASVGDRVTITCRASQSVSSAVAWYQQKPGKAPKLLIYSASSLYSGVPSRFSGSRSGTDFTLTISSLQPEDFATYYCQQSSSSLITFGQGTKVEIK"}, "B2": {"name": "Fab25 (synthetic antigen-binding fragment against NorA) (Fab, V domains shown)", "VH": "EVQLVESGGGLVQPGGSLRLSCAASGFTFSSSSIHWVRQAPGKGLEWVASISSSSGSTSYADSVKGRFTISADTSKNTAYLQMNSLRAEDTAVYYCARWETGYYPYWRMYGFYWALDYWGQGTLVTVFN", "VL": "B1 VL"}, "B3": {"name": "FITC-NPI-1 (fluorescent analog of NPI-1) (peptide)", "peptide": "{FITC-βAla}-YYYYAWRVGGYWR-NH2", "SMILES": "CC(C)[C@H](NC(=O)[C@H](CCCNC(=N)N)NC(=O)[C@H](Cc1c[nH]c2ccccc12)NC(=O)[C@H](C)NC(=O)[C@H](Cc1ccc(O)cc1)NC(=O)[C@H](Cc1ccc(O)cc1)NC(=O)[C@H](Cc1ccc(O)cc1)NC(=O)[C@H](Cc1ccc(O)cc1)NC(=O)CCNC(=S)Nc1ccc2c(c1)C(=O)OC21c2ccc(O)cc2Oc2cc(O)ccc21)C(=O)NCC(=O)NCC(=O)N[C@@H](Cc1ccc(O)cc1)C(=O)N[C@@H](Cc1c[nH]c2ccccc12)C(=O)N[C@@H](CCCNC(=N)N)C(N)=O"}, "B4": {"name": "Fab36 (synthetic antigen-binding fragment against NorA) (Fab, V domains shown)", "VH": "B1 VH with A108R", "VL": "B1 VL"}, "B5": {"name": "Fab36 W133A (CDRH3 mutant) (Fab, V domains shown)", "VH": "B1 VH with W107A, A108R", "VL": "B1 VL"}}, "key": {"[1]": {"target": "T1, NorA (S. aureus quinolone efflux pump), C-terminal decahistidine tag, in PMAL-C8 amphipol (S. aureus) (UniProt Q5HHX4)", "T1 sequence": "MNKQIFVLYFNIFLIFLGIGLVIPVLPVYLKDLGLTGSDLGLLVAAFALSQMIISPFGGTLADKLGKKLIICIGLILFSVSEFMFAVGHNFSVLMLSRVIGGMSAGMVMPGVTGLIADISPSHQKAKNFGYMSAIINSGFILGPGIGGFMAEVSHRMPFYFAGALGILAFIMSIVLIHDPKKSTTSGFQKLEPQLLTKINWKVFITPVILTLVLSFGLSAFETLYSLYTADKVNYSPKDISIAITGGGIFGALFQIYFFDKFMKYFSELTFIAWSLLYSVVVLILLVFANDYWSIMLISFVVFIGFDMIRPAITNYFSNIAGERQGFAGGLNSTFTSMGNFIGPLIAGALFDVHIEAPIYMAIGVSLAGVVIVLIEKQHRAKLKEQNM", "assay": "MST"}, "[2]": {"target": "NorA (S. aureus quinolone efflux pump), C-terminal decahistidine tag, in PMAL-C8 amphipol (S. aureus, UniProt Q5HHX4)", "assay": "MST"}, "[3]": {"target": "T2, NorA (S. aureus quinolone efflux pump), C-terminal decahistidine tag, in PMAL-C8 amphipol (S. aureus, UniProt Q5HHX4 1-388)", "T2 sequence": "T1 sequence", "assay": "fluorescence polarisation"}}, "note": "Where a chain is given by its changes, count along the chain named. In names and notes the source's numbering stands. * marks the point of attachment. FITC = O=C1OC2(c3ccc(O)cc3Oc3cc(O)ccc32)c2ccc(NC(=S)*)cc21; βAla = NCCC(=O)O"}
{"binder": "B1", "values": [{"measurement": "Kd", "setting": "[1]", "value": "> 14000", "unit": "nM"}]}
{"binder": "B2", "values": [{"measurement": "Kd", "setting": "[2]", "value": 1200, "unit": "nM"}]}
{"binder": "B3", "values": [{"measurement": "Kd", "setting": "[3]", "value": 10, "unit": "nM"}]}
{"binder": "B4", "values": [{"measurement": "Kd", "setting": "[2]", "value": 140, "unit": "nM"}]}
{"binder": "B5", "values": [{"measurement": "fold reduction of binding affinity against Fab36", "setting": "[2]", "value": "~20", "unit": "fold"}]}
